Experimental data as given in US7183387 (Genentech, dated 2007).

How the values were obtained:
[1] = molecular target: T1, human FcγRIIB α subunit extracellular domain-His6-GST fusion (human, UniProt P31994 43-217); test: hexamer ELISA
T1 construct: extracellular domain; also called CD32; not shown: glutathione S transferase (GST)
T1 sequence: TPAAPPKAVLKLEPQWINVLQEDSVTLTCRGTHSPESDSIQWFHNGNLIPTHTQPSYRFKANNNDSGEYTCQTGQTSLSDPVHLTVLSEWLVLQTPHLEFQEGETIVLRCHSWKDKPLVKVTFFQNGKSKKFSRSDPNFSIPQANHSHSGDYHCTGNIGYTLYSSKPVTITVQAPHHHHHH

[2] = molecular target: T2, human FcγRIIA-Arg131 α subunit extracellular domain-His6-GST fusion (human, UniProt P12318 34-217); test: hexamer ELISA
T2 construct: extracellular domain; also called FcγRIIA-R131; not shown: glutathione S transferase (GST)
T2 sequence: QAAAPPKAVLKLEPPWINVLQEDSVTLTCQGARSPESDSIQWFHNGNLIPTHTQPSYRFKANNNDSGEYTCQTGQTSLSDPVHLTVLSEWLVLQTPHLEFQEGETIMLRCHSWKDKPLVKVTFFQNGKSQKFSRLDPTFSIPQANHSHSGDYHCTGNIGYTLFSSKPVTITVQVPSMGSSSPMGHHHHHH

[3] = molecular target: T3, human FcγRIIIA-Phe158 α subunit extracellular domain-His6-GST fusion (human, UniProt P08637 17-208); test: hexamer ELISA
T3 construct: extracellular domain; also called FcγRIIIA-F158; CD16; not shown: glutathione S transferase (GST)

[4] = molecular target: T4, human FcγRIIIA-Phe158 with human γ-chain on stably transfected CHO cells (human, UniProt P08637 17-254; P30273 19-86); test: flow cytometry, monomeric IgG on CHO cells with FcγRIIIA-Phe158 α- and γ-chains
T4 construct: whole, on cells; CHO cells stably transfected with the α- and γ-chains of the receptor; also called FcγRIIIA-Phe158 (cell-based assay)
Procedure: CHO cell transfection was carried out using Superfect (Qiagen) according to the manufacturer's instructions. […] Receptor expression levels were determined by staining with anti-FcγRIII monoclonal antibody 3G8 (Medarex). Binding of IgG1 variants was performed by adding monomeric IgG in staining buffer to 5×10^5 cells and incubating in 96 well round-bottom tissue culture plates (Costar, Cambridge, Mass.) at 4° C. for 30 min. Cells were washed three times with staining buffer and IgG binding detected by addition of 1:200 PE-F(ab')_2 fragment of goat anti-human IgG and incubation for 30 min at 4° C. After washing, immunofluorescence staining was analyzed on a FACScan flow cytometer using Cellquest software (Becton Dickinson). Dead cells were excluded from analysis by addition of 1 μg/ml propidium iodide.
For FcγRIIIA, the selected variants were assayed in the ELISA-format as well as on stable-transfected CHO cell lines expressing the γ-chains (FcγRIIIA-Phe158 or FcγRIIIA-Val158) with the associated human α-chain.

[5] = molecular target: T5, human FcγRIIIA-Val158 α subunit extracellular domain-His6-GST fusion protein (human, UniProt P08637 17-208); test: ELISA format, hexameric complex on FcγRIIIA-Val158
T5 construct: ELISA-format target; also called FcγRIIIA-V158; not shown: glutathione S-transferase (GST)

[6] = molecular target: T6, human FcγRIIIA-Phe158 α subunit extracellular domain-His6-GST fusion protein (human, UniProt P08637 17-208); test: ELISA, IgG:IgE hexamer on coated FcγRIIIA-Phe158-GST; value carried over from Table 6
T6 construct: ELISA-format target; also called FcγRIIIA-F158; not shown: glutathione S-transferase (GST)

[7] = molecular target: T7, human FcγRIIA-R131 α subunit extracellular domain-His6-GST fusion protein (human, UniProt P12318 34-217); test: ELISA, IgG:IgE hexamer on coated FcγRIIA-R131-GST; value carried over from Table 6, 7 or 8
T7 construct: ECD-6His-GST fusion made in 293 cells, coated on the plate; also called FcγRIIA-Arg131; not shown: glutathione S-transferase (GST)
T7 sequence: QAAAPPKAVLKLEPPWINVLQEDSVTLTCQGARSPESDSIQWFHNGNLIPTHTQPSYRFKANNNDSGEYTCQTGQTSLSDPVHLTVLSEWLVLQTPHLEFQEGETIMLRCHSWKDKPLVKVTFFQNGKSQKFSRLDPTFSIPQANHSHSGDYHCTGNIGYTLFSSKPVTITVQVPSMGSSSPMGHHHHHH

[8] = molecular target: T6, human FcγRIIIA-Phe158 α subunit …; test: ELISA format, hexameric complex on FcγRIIIA-Phe158; separate assays run together with the Val158 assays
[9] = molecular target: T8, human FcγRIIA-H131 α subunit extracellular domain-His6-GST fusion protein (human, UniProt P12318 34-217); test: ELISA; binding ratio on FcγRIIA-H131 divided by that on FcγRIIA-R131
T8 construct: also called FcγRIIA-His131; not shown: glutathione S-transferase (GST)
T8 sequence: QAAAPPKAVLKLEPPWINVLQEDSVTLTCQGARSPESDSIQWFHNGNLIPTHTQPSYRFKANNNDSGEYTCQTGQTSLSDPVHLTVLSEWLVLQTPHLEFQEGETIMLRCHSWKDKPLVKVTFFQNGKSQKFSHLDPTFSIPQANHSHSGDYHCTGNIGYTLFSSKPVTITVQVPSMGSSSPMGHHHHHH

[10] = molecular target: T8, human FcγRIIA-H131 α subunit …; test: ELISA, IgG:IgE hexamer on coated FcγRIIA-H131-GST
[11] = molecular target: T7, human FcγRIIA-R131 α subunit …; test: ELISA, IgG:IgE hexamer on coated FcγRIIA-R131-GST; separate assays run together with the H131 assays
[12] = molecular target: T9, human FcγRIIIA-Val158 with human γ-chain on stably transfected CHO cells (human, UniProt P08637 17-254; P30273 19-86); test: flow cytometry, monomeric IgG on CHO cells with FcγRIIIA-Val158 α- and γ-chains
T9 construct: whole, on cells; CHO cells stably transfected with the α- and γ-chains of the receptor; also called FcγRIIIA-Val158 (cell-based assay); FcγRIIIA-V158

[13] = molecular target: T10, human neonatal Fc receptor (FcRn), biotinylated (human, UniProt P55899 24-297; P61769 21-119, biotinylated (biotin-X-NHS)); test: FcRn ELISA, pH 6.0;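 further: Streptavidin-captured FcRn plates, IgG variants titrated 2 h at pH 6.0, peroxidase anti-human IgG read at 450 nm, variant over standard concentration at the standard curve mid-point absorbance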
T10 construct: captured on streptavidin plates
Procedure: FcRn Binding ELISA: For measuring FcRn binding activity of IgG variants, ELISA plates were coated with 2 µg/ml streptavidin (Zymed, South San Francisco) in 50 mM carbonate buffer, pH 9.6, at 4° C. overnight and blocked with PBS-0.5% BSA, pH 7.2 at room temperature for one hour. Biotinylated FcRn (prepared using biotin-X-NHS from Research Organics, Cleveland, Ohio and used at 1–2 µg/ml) in PBS-0.5% BSA, 0.05% polysorbate 20, pH 7.2, was added to the plate and incubated for one hour. Two fold serial dilutions of IgG standard (1.6–100 ng/ml) or variants in PBS-0.5% BSA, 0.05% polysorbate 20, pH 6.0, were added to the plate and incubated for two hours. Bound IgG was detected using peroxidase labeled goat F(ab')_2 anti-human IgG F(ab')_2 in the above pH 6.0 buffer (Jackson ImmunoResearch, West Grove, Pa.) followed by 3,3',5,5'-tetramethyl benzidine (Kirgaard & Perry Laboratories) as the substrate. Plates were washed between steps with PBS-0.05% TWEEN 20® at either pH 7.2 or 6.0. Absorbance was read at 450 nm on a Vmax plate reader (Molecular Devices, Menlo Park, Calif.). Titration curves were fit with a four-parameter nonlinear regression curve-fitting program (KaleidaGraph, Synergy software, Reading, Pa.). Concentrations of IgG variants corresponding to the mid-point absorbance of the titration curve of the standard were calculated and then divided by the concentration of the standard corresponding to the mid-point absorbance of the standard titration curve.

[14] = molecular target: T1, human FcγRIIB α subunit extracellular …; test: hexamer ELISA; remark: listed apart in the source
[15] = molecular target: T2, human FcγRIIA-Arg131 α subunit …; test: hexamer ELISA; remark: listed apart in the source
[16] = molecular target: T3, human FcγRIIIA-Phe158 α subunit …; test: hexamer ELISA; remark: listed apart in the source
[17] = molecular target: T11, human FcγRIA α subunit extracellular domain-His6-GST fusion (human, UniProt P12314 16-292); test: FcγRI ELISA and THP-1 cells, averaged
T11 construct: extracellular domain; also called GST-FcγRIA; CD64; not shown: glutathione S transferase (GST)

[18] = molecular target: T11, human FcγRIA α subunit extracellular …; test: FcγRI ELISA, E27 background
Procedure: Prior to assay, plates are washed 3× with 250 μl of wash buffer (PBS pH 7.4 containing 0.5% TWEEN 20™) and blocked with 250 μl of assay buffer (50 mM Tris buffered saline, 0.05% TWEEN 20™, 0.5% RIA grade bovine albumin (Sigma A7888), and 2 mM EDTA pH 7.4). Samples diluted to 10 μg/ml in 1 ml of assay buffer are added to FcγRI α subunit coated plates and incubated for 120 minutes at 25° C. on an orbital shaker. […] Plates are washed 5× with wash buffer to remove unbound HRP goat anti-human IgG and bound anti-IgG is detected by adding 100 μl of substrate solution (0.4 mg/ml o-phenylenedaimine dihydrochloride, Sigma P6912, 6 mM H_2O_2 in PBS) and incubating for 8 min at 25° C. Enzymatic reaction is stopped by the addition of 100 μl 4.5N H_2SO_4 and colorimetric product is measured at 490 nm on a 96 well plate densitometer (Molecular Devices). Binding of variant is expressed as a percent of the wild type molecule.

[19] = molecular target: T2, human FcγRIIA-Arg131 α subunit …; test: immune complex ELISA, E27 background
[20] = molecular target: T3, human FcγRIIIA-Phe158 α subunit …; test: immune complex ELISA, E27 background

T11 sequence (P12314 other isoform, or with tags, fused parts or gaps): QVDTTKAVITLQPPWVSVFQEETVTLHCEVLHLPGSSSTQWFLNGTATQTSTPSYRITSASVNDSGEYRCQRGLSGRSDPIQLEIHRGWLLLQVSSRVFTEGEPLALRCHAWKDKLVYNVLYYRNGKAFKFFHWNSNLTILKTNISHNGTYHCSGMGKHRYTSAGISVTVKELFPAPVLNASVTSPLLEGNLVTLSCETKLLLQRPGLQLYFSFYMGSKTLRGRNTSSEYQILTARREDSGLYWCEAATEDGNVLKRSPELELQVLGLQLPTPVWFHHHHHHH
T3 sequence (P08637 other isoform, or with tags, fused parts or gaps): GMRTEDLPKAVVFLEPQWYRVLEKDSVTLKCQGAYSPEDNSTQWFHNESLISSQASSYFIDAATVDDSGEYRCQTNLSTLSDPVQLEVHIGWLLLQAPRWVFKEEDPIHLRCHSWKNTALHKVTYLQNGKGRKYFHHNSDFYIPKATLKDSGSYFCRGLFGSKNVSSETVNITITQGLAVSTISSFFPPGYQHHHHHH
T10 sequence (P55899 24-297 limits assumed, chain 1 of 2): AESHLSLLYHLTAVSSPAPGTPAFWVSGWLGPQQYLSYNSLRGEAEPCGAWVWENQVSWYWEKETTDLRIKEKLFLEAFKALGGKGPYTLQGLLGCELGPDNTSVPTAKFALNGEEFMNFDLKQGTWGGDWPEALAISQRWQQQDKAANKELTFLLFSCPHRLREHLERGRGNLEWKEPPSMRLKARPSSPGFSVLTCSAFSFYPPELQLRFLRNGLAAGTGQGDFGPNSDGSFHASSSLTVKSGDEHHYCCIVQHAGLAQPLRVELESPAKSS
T10 sequence (P61769 21-119 limits assumed, chain 2 of 2): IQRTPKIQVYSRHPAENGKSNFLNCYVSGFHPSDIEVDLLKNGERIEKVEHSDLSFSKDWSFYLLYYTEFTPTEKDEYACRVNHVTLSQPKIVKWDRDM
T6 sequence (P08637 other isoform, or with tags, fused parts or gaps, form in doubt): as the sequence (P08637 other isoform, or with tags, fused parts or gaps) above
T5 sequence (P08637 other isoform, or with tags, fused parts or gaps, form in doubt): as the sequence (P08637 other isoform, or with tags, fused parts or gaps) above, with F160V counted along it
T4 sequence (P08637 17-254, chain 1 of 2): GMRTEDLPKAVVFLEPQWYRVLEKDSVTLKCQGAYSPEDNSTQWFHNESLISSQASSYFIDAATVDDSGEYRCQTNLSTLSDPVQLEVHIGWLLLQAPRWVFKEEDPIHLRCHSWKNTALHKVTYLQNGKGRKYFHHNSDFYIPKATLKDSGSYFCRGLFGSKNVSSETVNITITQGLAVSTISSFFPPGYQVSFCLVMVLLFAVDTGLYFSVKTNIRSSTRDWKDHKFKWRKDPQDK
T4 sequence (P30273 19-86, chain 2 of 2): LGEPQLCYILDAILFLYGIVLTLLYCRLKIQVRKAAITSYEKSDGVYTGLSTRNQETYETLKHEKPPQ
T9 sequence (P08637 17-254 F176V, chain 1 of 2): as the sequence (P08637 17-254, chain 1 of 2) above, with F160V counted along it
T9 sequence (P30273 19-86, chain 2 of 2): as the sequence (P30273 19-86, chain 2 of 2) above

B1: anti-IgE E27 IgG1 Asp265Asn (antibody)
heavy: not shown
light: DIQLTQSPSSLSASVGDRVTITCRASKPVDGEGDSYLNWYQQKPGKAPKLLIYAASYLESGVPSRFSGSGSGTDFTLTISSLQPEDFATYYCQQSHEDPYTFGQGTKVEIKRTVAAPSVFIFPPSDEQLKSGTASVVCLLNNFYPREAKVQWKVDNALQSGNSQESVTEQDSKDSTYSLSSTLTLSKADYEKHKVYACEVTHQGLSSPVTKSFNRGEC
[1]
  binding result: no binding
[2]
  binding result: no binding
[3]
  binding result: no binding

B2: anti-IgE E27 IgG1 variant Ser298Ala (antibody)
heavy: not shown
light: DIQLTQSPSSLSASVGDRVTITCRASKPVDGEGDSYLNWYQQKPGKAPKLLIYAASYLESGVPSRFSGSGSGTDFTLTISSLQPEDFATYYCQQSHEDPYTFGQGTKVEIKRTVAAPSVFIFPPSDEQLKSGTASVVCLLNNFYPREAKVQWKVDNALQSGNSQESVTEQDSKDSTYSLSSTLTLSKADYEKHKVYACEVTHQGLSSPVTKSFNRGEC
notes: also called S317A
[4]
  ratio of binding of the variant to that of native IgG1: 1.85 ratio (variant/native IgG1)
[5]
  ratio of binding of the variant to that of native IgG1: 1.07 ratio (variant/native IgG1)
[6]
  ratio of binding of the variant to that of native IgG1: 1.34 ratio (variant/native IgG1)
[7]
  ratio of binding of the variant to that of native IgG1: 0.4 ratio (variant/native IgG1)
[8]
  ratio of binding of the variant to that of native IgG1: 1.49 ratio (variant/native IgG1)
[9]
  H131/R131: 0.93 ratio (H131 value/R131 value)
[10]
  ratio of binding of the variant to that of native IgG1: 0.24 ratio (variant/native IgG1)
[11]
  ratio of binding of the variant to that of native IgG1: 0.26 ratio (variant/native IgG1)
[12]
  ratio of binding of the variant to that of native IgG1: 1.18 ratio (variant/native IgG1)

B3: anti-IgE E27 IgG1 Asp265Glu (antibody)
heavy: not shown
light: DIQLTQSPSSLSASVGDRVTITCRASKPVDGEGDSYLNWYQQKPGKAPKLLIYAASYLESGVPSRFSGSGSGTDFTLTISSLQPEDFATYYCQQSHEDPYTFGQGTKVEIKRTVAAPSVFIFPPSDEQLKSGTASVVCLLNNFYPREAKVQWKVDNALQSGNSQESVTEQDSKDSTYSLSSTLTLSKADYEKHKVYACEVTHQGLSSPVTKSFNRGEC
[1]
  binding result: no binding
[2]
  binding result: no binding
[3]
  binding result: no binding

B4: anti-IgE E27 IgG1 Ser298Asn (antibody)
heavy: not shown
light: DIQLTQSPSSLSASVGDRVTITCRASKPVDGEGDSYLNWYQQKPGKAPKLLIYAASYLESGVPSRFSGSGSGTDFTLTISSLQPEDFATYYCQQSHEDPYTFGQGTKVEIKRTVAAPSVFIFPPSDEQLKSGTASVVCLLNNFYPREAKVQWKVDNALQSGNSQESVTEQDSKDSTYSLSSTLTLSKADYEKHKVYACEVTHQGLSSPVTKSFNRGEC
[1]
  binding result: no binding
[2]
  binding result: no binding
[3]
  binding result: no binding

B5: anti-IgE E27 IgG1 Lys414Ala (antibody)
heavy: not shown
light: DIQLTQSPSSLSASVGDRVTITCRASKPVDGEGDSYLNWYQQKPGKAPKLLIYAASYLESGVPSRFSGSGSGTDFTLTISSLQPEDFATYYCQQSHEDPYTFGQGTKVEIKRTVAAPSVFIFPPSDEQLKSGTASVVCLLNNFYPREAKVQWKVDNALQSGNSQESVTEQDSKDSTYSLSSTLTLSKADYEKHKVYACEVTHQGLSSPVTKSFNRGEC
[13]
  ratio to native IgG1: 1.02 ratio
[14]
  ratio to native IgG1: 0.58 ratio
[15]
  ratio to native IgG1: 0.64 ratio
[16]
  ratio to native IgG1: 0.82 ratio
[17]
  ratio to native IgG1: 1 ratio
[1]
  reduction in binding against native IgG1: 40%
[2]
  reduction in binding against native IgG1: 40%

B6: anti-IgE E27 IgG1 Gln419 changed to Ala (antibody)
heavy: not shown
light: DIQLTQSPSSLSASVGDRVTITCRASKPVDGEGDSYLNWYQQKPGKAPKLLIYAASYLESGVPSRFSGSGSGTDFTLTISSLQPEDFATYYCQQSHEDPYTFGQGTKVEIKRTVAAPSVFIFPPSDEQLKSGTASVVCLLNNFYPREAKVQWKVDNALQSGNSQESVTEQDSKDSTYSLSSTLTLSKADYEKHKVYACEVTHQGLSSPVTKSFNRGEC
notes: named only by its position
[1]
  reduction in binding against native IgG1: 40%
[2]
  reduction in binding against native IgG1: 30%

B7: anti-IgE E27 IgG1 Pro329Ala (antibody)
heavy: not shown
light: DIQLTQSPSSLSASVGDRVTITCRASKPVDGEGDSYLNWYQQKPGKAPKLLIYAASYLESGVPSRFSGSGSGTDFTLTISSLQPEDFATYYCQQSHEDPYTFGQGTKVEIKRTVAAPSVFIFPPSDEQLKSGTASVVCLLNNFYPREAKVQWKVDNALQSGNSQESVTEQDSKDSTYSLSSTLTLSKADYEKHKVYACEVTHQGLSSPVTKSFNRGEC
notes: also called P329A
[13]
  ratio to native IgG1: 0.8 ratio
[18]
  percentage of the wild type: 104%
[15]
  ratio to native IgG1: 0.08 ratio
[16]
  ratio to native IgG1: 0.21 ratio
[17]
  ratio to native IgG1: 0.48 ratio
[19]
  percentage of the wild type: 111%
[20]
  percentage of the wild type: 85%

B8: anti-IgE E27 IgG1 Asp270Asn (antibody)
heavy: not shown
light: DIQLTQSPSSLSASVGDRVTITCRASKPVDGEGDSYLNWYQQKPGKAPKLLIYAASYLESGVPSRFSGSGSGTDFTLTISSLQPEDFATYYCQQSHEDPYTFGQGTKVEIKRTVAAPSVFIFPPSDEQLKSGTASVVCLLNNFYPREAKVQWKVDNALQSGNSQESVTEQDSKDSTYSLSSTLTLSKADYEKHKVYACEVTHQGLSSPVTKSFNRGEC
[1]
  binding result: no binding
[2]
  binding result: no binding
[3]
  binding result: no binding
